The target in assay [1] is T1, matrix metalloproteinase-9 (MMP-9) (UniProt P14780 107-707, limits assumed). The experiment in a line: SPR (BiaCore-X, CM-5 chip); KA = ka/kd. (In general: In SPR one partner is held on a chip, and binding of the other changes the refractive index at the surface.)
Assay [2] addresses T1, matrix metalloproteinase-9 (MMP-9). The assay is described as follows: SPR (BiaCore-X, CM-5 chip); MMP-9 coupled to the chip, SEQ ID NO:5 polypeptide in PBS flowed over.
For assay [3], the target named is T2, matrix metalloproteinase-1 (MMP-1) (UniProt P03956 100-469, limits assumed).
T2 sequence (looked up): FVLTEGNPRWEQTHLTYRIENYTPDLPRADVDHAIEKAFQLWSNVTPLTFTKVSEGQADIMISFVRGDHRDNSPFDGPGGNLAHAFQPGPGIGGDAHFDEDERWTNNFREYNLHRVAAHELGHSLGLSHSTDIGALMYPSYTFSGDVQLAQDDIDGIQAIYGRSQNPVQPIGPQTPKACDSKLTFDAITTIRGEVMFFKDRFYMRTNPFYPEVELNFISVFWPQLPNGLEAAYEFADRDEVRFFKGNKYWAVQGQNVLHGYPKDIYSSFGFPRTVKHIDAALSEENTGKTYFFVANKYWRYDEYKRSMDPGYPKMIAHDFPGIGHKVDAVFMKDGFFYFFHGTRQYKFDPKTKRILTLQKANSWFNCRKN
The experiment in a line: fluoresceinated collagen hydrolysis assay, Dixon plot, competitive inhibition assumed; target MMP-1. How it is done:
(§1) Inhibition of MMPs: The assay employed measured the enzymatic hydrolysis of fluoresceinated collagen by MMP-9 or other matrix metalloproteinases as a function of time. Fluoresceinated collagen at a concentration of 5 μM was added to reaction buffer (50 mM Tris-HCl (pH 7.6), 150 mM NaCl, 5 mM CaCl_2, 0.1 mM NaN_3) and was placed into a Spectrosil quartz fluorimeter cuvette. MMP at a concentration of 0.1 μM was mixed with varying amounts of polypeptide inhibitor (SEQ ID NO:5 or SEQ ID NO:20) and incubated at 25° C. for 10 minutes in order to effect binding. The protein mixture was added to the collagen substrate, and mixed. Fluorescence emission intensity at 520 nm was measured as a function of time using an excitation wavelength of 495 nm in a Shimadzu RF5301 fluorimeter. The fluorescein release assay was used to determine the inhibitory constant (K_i) of the protein based matrix metalloproteinase inhibitor ([I]) according to Segel (1993) by using Dixon plots (1/v vs. [I]), where: […]

Assay [4] addresses T1, matrix metalloproteinase-9 (MMP-9). The experiment in a line: fluoresceinated collagen hydrolysis assay, Dixon plot, competitive inhibition assumed; target MMP-9. How it is done:
as §1

T1 sequence (P14780 107-707 limits assumed): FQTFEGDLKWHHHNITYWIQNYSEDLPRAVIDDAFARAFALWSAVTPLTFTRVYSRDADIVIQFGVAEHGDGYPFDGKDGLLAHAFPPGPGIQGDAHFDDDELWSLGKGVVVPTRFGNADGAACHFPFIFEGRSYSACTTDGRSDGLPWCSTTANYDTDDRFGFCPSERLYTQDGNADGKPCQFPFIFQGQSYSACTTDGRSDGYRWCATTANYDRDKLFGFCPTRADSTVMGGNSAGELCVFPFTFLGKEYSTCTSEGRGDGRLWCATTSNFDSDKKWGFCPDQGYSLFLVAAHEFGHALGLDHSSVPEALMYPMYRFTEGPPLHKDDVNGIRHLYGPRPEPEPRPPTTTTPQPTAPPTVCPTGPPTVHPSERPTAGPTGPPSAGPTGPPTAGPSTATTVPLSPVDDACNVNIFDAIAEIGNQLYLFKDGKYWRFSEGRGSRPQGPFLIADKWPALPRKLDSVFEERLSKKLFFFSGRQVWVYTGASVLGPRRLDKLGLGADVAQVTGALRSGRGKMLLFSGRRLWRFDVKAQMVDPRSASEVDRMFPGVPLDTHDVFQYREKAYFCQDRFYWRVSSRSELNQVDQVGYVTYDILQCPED

B1: SEQ ID NO:5 polypeptide (DST; Delta Synthetic TIMP), purified Fraction IV protein (designed binder)
chain: CSCSPVHPQQAFSNADVVIRAKAVSEKEVDSGNDIYGNPIKRIQYEIKQIKMFKGPEKDIEFIYTAPSSAVCGVSLDVGGKKEYCIAGKAEGDGKMHITLCDFICPW
notes: It was expressed in E. coli as an MBP fusion and cleaved with Factor Xa; It is monomeric by gel filtration; Three disulfide bonds; also called DST protein
As for B1, in assay [1], the Ka stood at 1.5e+08 M⁻¹. Moreover, in assay [2], the koff came to 0.0013 s⁻¹ and the kon is 200000 M⁻¹ s⁻¹. Besides, the Ki in assay [3] is 12 nM. Also, the Ki in assay [4] was determined as 16 nM.

What is called koff is the first-order rate constant of dissociation. As usually defined, the kon is the rate constant with which the complex forms. The low end stands for slower complex formation, the high end for faster complex formation. What is called Ki is the dissociation constant of the complex between target and ligand, obtained from inhibition or displacement.
